Patent US20240382610A1 (TALLAC THERAPEUTICS, published 2024)

T1: Human nectin-4 ECD-6His (TNT-175) (human, UniProt Q96NY8 32-349)
T1 construct: the entry holds the extracellular domain with the C-terminal 6His tag
T1 sequence: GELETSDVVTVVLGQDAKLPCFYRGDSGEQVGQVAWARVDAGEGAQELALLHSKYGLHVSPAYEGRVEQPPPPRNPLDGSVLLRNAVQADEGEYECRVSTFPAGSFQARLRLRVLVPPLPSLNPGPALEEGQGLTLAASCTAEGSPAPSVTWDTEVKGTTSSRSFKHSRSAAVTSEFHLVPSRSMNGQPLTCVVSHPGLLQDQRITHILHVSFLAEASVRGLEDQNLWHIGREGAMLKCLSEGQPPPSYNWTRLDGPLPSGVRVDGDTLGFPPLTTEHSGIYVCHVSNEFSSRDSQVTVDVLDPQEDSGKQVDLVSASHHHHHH

T2: human nectin-4 on cells (human, UniProt Q96NY8 32-510)
T2 construct: whole, on cells; also called PVRL4
T2 sequence (looked up): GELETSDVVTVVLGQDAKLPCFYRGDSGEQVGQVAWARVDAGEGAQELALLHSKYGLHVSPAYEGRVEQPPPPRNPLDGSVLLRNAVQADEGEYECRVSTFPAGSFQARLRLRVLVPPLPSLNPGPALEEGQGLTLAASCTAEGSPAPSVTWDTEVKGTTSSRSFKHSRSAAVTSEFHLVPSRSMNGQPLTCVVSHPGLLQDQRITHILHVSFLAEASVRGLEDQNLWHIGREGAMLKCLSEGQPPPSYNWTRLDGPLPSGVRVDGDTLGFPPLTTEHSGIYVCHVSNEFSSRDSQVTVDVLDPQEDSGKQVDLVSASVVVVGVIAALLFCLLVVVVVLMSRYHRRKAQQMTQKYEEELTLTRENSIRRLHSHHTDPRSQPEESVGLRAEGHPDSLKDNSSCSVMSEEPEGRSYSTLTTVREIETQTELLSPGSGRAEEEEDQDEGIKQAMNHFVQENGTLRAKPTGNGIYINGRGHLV


Legend:
[1] = biological target: T1, Human nectin-4 ECD-6His (TNT-175); experiment: SPR ProteOn, mAb on protein A
Description: Initial testing of binding of nectin-4 antibodies to nectin-4. […] Biotinylated protein A (15 μg/mL) was immobilized to the surface of an NLC chip. 30 nM of purified mAb supernatant was diluted in PBS-T and captured over the protein A surface. Serial dilutions of human nectin-4 were injected over the mAb-coated chips, and binding kinetics were determined. Chips were regenerated using 4:1 v/v of IgG elution butter/4M NaCl.

[2] = biological target: T2, human nectin-4 on cells; experiment: flow cytometry MFI, MNK74 (nectin-4 positive) over AGS (negative)
Description: Cell binding of nectin-4 antibodies. Cell binding of the nectin-4 antibodies was also assessed. MNK74 (nectin-4 positive) and AGS (nectin-4 negative) cells were obtained from ATCC and cultured according to their protocols. Cells were detached with TrypLE (Gibco) and washed by centrifugation for five minutes at 400×g with FACS buffer (PBS+2% FBS). Cells were resuspended in FACS buffer, plated in 96-well format (0.25 e6/well) then pelleted by centrifugation for five minutes at 400×g. Cells were stained at 4° C. in Fixable Viability Dye eFluor 506 (eBioscience) diluted 1:4,000 in PBS. […] Cells were centrifuged, washed once in FACS buffer and stained at 4° C. with Goat F(ab′)₂ anti-Mouse IgG APC (Southern Biotech) diluted 1:400 in FACS buffer for 30 minutes or appropriate anti-human IgG. Cells were centrifuged, washed twice and fixed in 0.5% paraformaldehyde. Cells were analyzed on Attune NxT Flow Cytometer (Thermo Fisher), with subsequent data analysis by Flowjo 10.7 (BD). Dead cells were excluded by gating on the eFluor 506-negative population. […] Binding was assessed by median fluorescent intensity.

[3] = biological target: T1, Human nectin-4 ECD-6His (TNT-175); experiment: competition ELISA; nectin-4 ECD premixed with TNT201, captured by the coat antibody; % of signal without premix antibody
Description: (§1) Competition experiments of nectin-4 antibodies. ELISA plates were coated overnight at 4° C. with goat anti-mouse IgG at […] in PBS. […] As positive control, nectin-4 was diluted at same concentrations without a premix antibody. Two wells per plate were allocated for diluent only as negative/background control. Plates were washed as previously, 50 μL/well of premix was added to each plate and incubated for one hour. Plates were washed then incubated at room temperature for one hour with Rabbit anti 6× HIS HRP diluted 1:4,000 in diluent. Plates were washed once more and incubated at room temperature for 20 minutes with 50 μL/well of ABTS substrate. […] Binding was measured as an Optical Density (O.D.) value normalized to background and calculated as a percentage of positive control at the lowest nectin-4 dilution for greatest resolution.

[4] = biological target: T1, Human nectin-4 ECD-6His (TNT-175); experiment: competition ELISA; nectin-4 ECD premixed with TNT202, captured by the coat antibody; % of signal without premix antibody
Description: as §1

[5] = biological target: T1, Human nectin-4 ECD-6His (TNT-175); experiment: competition ELISA; nectin-4 ECD premixed with TNT203, captured by the coat antibody; % of signal without premix antibody
Description: as §1

[6] = biological target: T1, Human nectin-4 ECD-6His (TNT-175); experiment: competition ELISA; nectin-4 ECD premixed with TNT204, captured by the coat antibody; % of signal without premix antibody
Description: as §1

[7] = biological target: T1, Human nectin-4 ECD-6His (TNT-175); experiment: competition ELISA; nectin-4 ECD premixed with TNT205, captured by the coat antibody; % of signal without premix antibody
Description: as §1

[8] = biological target: T1, Human nectin-4 ECD-6His (TNT-175); experiment: competition ELISA; nectin-4 ECD premixed with TNT206, captured by the coat antibody; % of signal without premix antibody
Description: as §1

[9] = biological target: T1, Human nectin-4 ECD-6His (TNT-175); experiment: competition ELISA; nectin-4 ECD premixed with TNT207, captured by the coat antibody; % of signal without premix antibody
Description: as §1

[10] = biological target: T1, Human nectin-4 ECD-6His (TNT-175); experiment: competition ELISA; nectin-4 ECD premixed with TNT208, captured by the coat antibody; % of signal without premix antibody
Description: as §1

[11] = biological target: T1, Human nectin-4 ECD-6His (TNT-175); experiment: competition ELISA; nectin-4 ECD premixed with TNT209, captured by the coat antibody; % of signal without premix antibody
Description: as §1

[12] = biological target: T1, Human nectin-4 ECD-6His (TNT-175); experiment: competition ELISA; nectin-4 ECD premixed with TNT210, captured by the coat antibody; % of signal without premix antibody
Description: as §1

[13] = biological target: T1, Human nectin-4 ECD-6His (TNT-175); experiment: competition ELISA; nectin-4 ECD premixed with TNT211, captured by the coat antibody; % of signal without premix antibody
Description: as §1

[14] = biological target: T1, Human nectin-4 ECD-6His (TNT-175); experiment: competition ELISA; nectin-4 ECD premixed with TNT212, captured by the coat antibody; % of signal without premix antibody
Description: as §1

Kd [1]	koff [1]	kon [1]	Fold-change of binding to MNK74 compared to control AGS [2]	% of Positive [3]	% of Positive [4]	% of Positive [5]	% of Positive [6]	% of Positive [7]	% of Positive [8]	% of Positive [9]	% of Positive [10]	% of Positive [11]	% of Positive [12]	% of Positive [13]	% of Positive [14]	Binder
4.28 nM	0.00334 s⁻¹	780000 M⁻¹ s⁻¹	4.8 fold	1.7%	7.8%	39.7%	6.7%	57.1%	14.3%	3.4%	5.8%	37.2%	2.6%	32.4%	2.7%	TNT-197 (antibody, mouse IgG2a, kappa) heavy: EVQLVQSGGGVVQPGRSLRLSCAASGFTFSSYAMHWVRQAPGKGLEWVAVISYDGSNKYYADSVKGRFTISRDNSKNTLYLQMNSLRAEDTAVYYCARATLQLWLPLFDYWGQGTLVTVSSAKTTAPSVYPLAPVCGDTTGSSVTLGCLVKGYFPEPVTLTWNSGSLSSGVHTFPAVLQSDLYTLSSSVTVTSSTWPSQSITCNVAHPASSTKVDKKIEPRGPTIKPCPPCKCPAPNLLGGPSVFIFPPKIKDVLMISLSPIVTCVVVDVSEDDPDVQISWFVNNVEVHTAQTQTHREDYNSTLRVVSALPIQHQDWMSGKEFKCKVNNKDLPAPIERTISKPKGSVRAPQVYVLPPPEEEMTKKQVTLTCMVTDFMPEDIYVEWTNNGKTELNYKNTEPVLDSDGSYFMYSKLRVEKKNWVERNSYSCSVVHEGLHNHHTTKSFSRTPGRPQGFGPP light: not shown
0.585 nM	0.0023 s⁻¹	3.92e+06 M⁻¹ s⁻¹	7 fold	6.7%	27.9%	65.2%	18.7%	75.3%	43.1%	18.4%	26.4%	66.5%	11%	46.1%	21.2%	TNT-194 (antibody, mouse IgG2a, kappa) heavy: EVQLVQSGAEVKKPGASVKVSCKASGYTFTSYDINWVRQAPGQGLEWMGGIIPIFGTANYAQKFQGRVTITADESTSTAYMELRSLRSEDTAVYYCASTAVAGFGIDYWGQGTLVTVSSAKTTAPSVYPLAPVCGDTTGSSVTLGCLVKGYFPEPVTLTWNSGSLSSGVHTFPAVLQSDLYTLSSSVTVTSSTWPSQSITCNVAHPASSTKVDKKIEPRGPTIKPCPPCKCPAPNLLGGPSVFIFPPKIKDVLMISLSPIVTCVVVDVSEDDPDVQISWFVNNVEVHTAQTQTHREDYNSTLRVVSALPIQHQDWMSGKEFKCKVNNKDLPAPIERTISKPKGSVRAPQVYVLPPPEEEMTKKQVTLTCMVTDFMPEDIYVEWTNNGKTELNYKNTEPVLDSDGSYFMYSKLRVEKKNWVERNSYSCSVVHEGLHNHHTTKSFSRTPGRPQGFGPP light: DIQMTQSPSSLSASVGDRVTITCRASQGISNYLAWFQQKPGKAPKSLISAASSLQSGVPSRFSGSGSGTDFTLTISSLQPEDFATYYCLQHDSFPITFGGGTKLEIKRADAAPTVSIFPPSSEQLTSGGASVVCFLNNFYPKDINVKWKIDGSERQNGVLNSWTDQDSKDSTYSMSSTLTLTKDEYERHNSYTCEATHKTSTSPIVKSFNRNEC
1.34 nM	0.00125 s⁻¹	930000 M⁻¹ s⁻¹	6.4 fold	6.6%	24.7%	51.5%	15.2%	63.2%	35.8%	18.3%	23.1%	56.2%	16.3%	46.9%	20.7%	TNT-195 (antibody, mouse IgG2a, kappa) heavy: EVQLVQSGAEVKKPGSSVKVSCKASGGTFSSYAISWVRQAPGQGLEWMGGIIPIFGTANYAQKFQGRVTITADKSTSTAYMELSSLRSEDTAVYYCAAGYYYDSSGYYHQPYYFDYWGQGTLVTVSSAKTTAPSVYPLAPVCGDTTGSSVTLGCLVKGYFPEPVTLTWNSGSLSSGVHTFPAVLQSDLYTLSSSVTVTSSTWPSQSITCNVAHPASSTKVDKKIEPRGPTIKPCPPCKCPAPNLLGGPSVFIFPPKIKDVLMISLSPIVTCVVVDVSEDDPDVQISWFVNNVEVHTAQTQTHREDYNSTLRVVSALPIQHQDWMSGKEFKCKVNNKDLPAPIERTISKPKGSVRAPQVYVLPPPEEEMTKKQVTLTCMVTDFMPEDIYVEWTNNGKTELNYKNTEPVLDSDGSYFMYSKLRVEKKNWVERNSYSCSVVHEGLHNHHTTKSFSRTPGRPQGFGPP light: DIQMTQSPSTLSASVGDRVTITCRASQGISNYLAWYQQKPGKAPKLLIYAASSLQSGVPSRFSGSGSGTDFTLTISSLQPEDFATYYCQQSYSTPLTFGGGTKVEIKRADAAPTVSIFPPSSEQLTSGGASVVCFLNNFYPKDINVKWKIDGSERQNGVLNSWTDQDSKDSTYSMSSTLTLTKDEYERHNSYTCEATHKTSTSPIVKSFNRNEC
